Measured values reported in paper PMC9510110, “Assignment of IVL-Methyl side chain of the ligand-free monomeric human MALT1 paracaspase-IgL3 domain in solution” (Biomolecular Nmr Assignments, 2022).

Target: the molecule itself
Assay: anion-exchange chromatography (Q-Sepharose HP); purification step after Ni2+ Sepharose; monomer and dimer forms separated on the column; followed by SEC on Superdex 200 in 20 mM HEPES 7.4, 50 mM NaCl, 1 mM DTT

B1: human MALT1(Casp-IgL3)338–719 (domain or fragment, UniProt Q9UDY8 338-719, looked up)
chain: PLAKDKVALLIGNMNYREHPKLKAPLVDVYELTNLLRQLDFKVVSLLDLTEYEMRNAVDEFLLLLDKGVYGLLYYAGHGYENFGNSFMVPVDAPNPYRSENCLCVQNILKLMQEKETGLNVFLLDMCRKRNDYDDTIPILDALKVTANIVFGYATCQGAEAFEIQHSGLANGIFMKFLKDRLLEDKKITVLLDEVAEDMGKCHLTKGKQALEIRSSLSEKRALTDPIQGTEYSAESLVRNLQWAKAHELPESMCLKFDCGVQIQLGFAAEFSNVMIIYTSIVYKPPEIIMCDAYVTDFPLDLDIDPKDANKGTPEETGSYLVSKDLPKHCLYTRLSSLQKLKEHLVFTVCLSYQYSGLEDTVEDKQEVNVGKPLIAKLDMHR
notes: Expressed with isotope labels (2H, 15N, 13C; Ile/Val/Leu methyl labelling) in M9 medium; also called MALT1 paracaspase-IgL3 domain; source: E. coli T7 express, pET21b, purified (Ni2+ Sepharose, Q-Sepharose HP, SEC Superdex 200); not shown: His6, C-terminal, kept
binding result: binds
